# In patent publication US20210188980A1 (SHANGHAI EPIMAB BIOTHERAPEUTICS, published 2021):
# Numbering of substitutions follows the chain as printed.
# B1: HumAb709-7 (antibody, human IgG1, kappa, L234A L235A, V domains shown)
# VH: EVQLVESGGGLVQPGGSLRLSCAASGFTFSFYTMSWVRQAPGKGLEWVATISGGGRDTYYPDSVKGRFTISRDNAKNSLYLQMNSLRAEDTAVYYCARQGGNYLFAYWGQGTLVTVSS
# VL: DIVMTQSPSSLSASVGDRVTITCKASQDVNTVVAWYQQKPGKAPKVLISWASTRHTGVPSRFSGSGSGTDYTLTISSLQPEDFATYYCQQHYTTPYTFGGGTKVEIKR
# notes: humanized mAb709
# B2: HumAb709-8 (antibody, human IgG1, kappa, L234A L235A, V domains shown)
# VH: B1 VH with R98G
# VL: B1 VL
# notes: humanized mAb709; also called HurnAb709-8
# B3: HumAb709-12 (antibody, human IgG1, kappa, L234A L235A, V domains shown)
# VH: B1 VH with G44R, R98G
# VL: B1 VL with S63T
# notes: humanized mAb709; also called HuntAb709-12
# B4: HumAb709-6 (antibody, human IgG1, kappa, L234A L235A, V domains shown)
# VH: B1 VH with G44R, R98G
# VL: B1 VL with V3Q, V46L
# notes: humanized mAb709
# B5: HumAb709-1 (antibody, human IgG1, kappa, L234A L235A, V domains shown)
# VH: B1 VH
# VL: B1 VL with V3Q, V46L, S49Y
# notes: humanized mAb709
# B6: HumAb709-14 (antibody, human IgG1, kappa, L234A L235A, V domains shown)
# VH: B1 VH with R98G
# VL: B1 VL with A43S, P44L, S63T
# notes: humanized mAb709
# B7: HumAb709-5 (antibody, human IgG1, kappa, L234A L235A, V domains shown)
# VH: B1 VH with R98G
# VL: B1 VL with V3Q, V46L
# notes: humanized mAb709
# B8: HumAb709-15 (antibody, human IgG1, kappa, L234A L235A, V domains shown)
# VH: B1 VH with G44R, R98G
# VL: B1 VL with A43S, P44L, S63T
# notes: humanized mAb709
# B9: HumAb709-9 (antibody, human IgG1, kappa, L234A L235A, V domains shown)
# VH: B1 VH with G44R, R98G
# VL: B1 VL
# notes: humanized mAb709
# B10: HumAb709-11 (antibody, human IgG1, kappa, L234A L235A, V domains shown)
# VH: B1 VH with R98G
# VL: B1 VL with S63T
# notes: humanized mAb709
# B11: HumAb709-2 (antibody, human IgG1, kappa, L234A L235A, V domains shown)
# VH: B1 VH with R98G
# VL: B1 VL with V3Q, V46L, S49Y
# notes: humanized mAb709
# B12: HumAb709-10 (antibody, human IgG1, kappa, L234A L235A, V domains shown)
# VH: B1 VH
# VL: B1 VL with S63T
# notes: humanized mAb709
# B13: HumAb709-13 (antibody, human IgG1, kappa, L234A L235A, V domains shown)
# VH: B1 VH
# VL: B1 VL with A43S, P44L, S63T
# notes: humanized mAb709
# B14: HumAb713-3 (antibody, human IgG1, kappa, L234A L235A, V domains shown)
# VH: EVQLVESGGGLVQPGGSLRLSCAASGFTSSDYGMHWVRQAPGKGLEWVSYISSGSYTIYYADTVKGRFTISRDNAKNSLYLQMNSLRDEDTAVYYCAKRGGSSHVNVMDYWGQGTTVTVSS
# VL: DIQMTQSPSSLSASVGDRVTITCKASDHINNWLAWYQQKPGKAPKLLIYGATSLETGVPSRFSGSGSGTDFTFTISSLQPEDIATYYCQQYWSPPYTFGGGTKVEIKR
# notes: humanized mAb713; also called HurnAb713-3
# B15: HumAb713-11 (antibody, human IgG1, kappa, L234A L235A, V domains shown)
# VH: B14 VH
# VL: B14 VL with Y49S, F71Y
# notes: humanized mAb713
# B16: HumAb713-1 (antibody, human IgG1, kappa, L234A L235A, V domains shown)
# VH: B14 VH with S29F, K98R
# VL: B14 VL
# notes: humanized mAb713
# B17: mAb713c (antibody, V domains shown)
# VH: EVKLVESGGGLVKPGGSLELSCAASGFTSSDYGMHWVRQAPEKGLEWVAYISSGSYTIYYADTVKGRFTISRDNAKNTLFLQMTSLRSEDTAMYYCAKRGGSSHVNVMDYWGQGTSVTVSS
# VL: DIQMTQSSSYLSVSLGGRVTITCKASDHINNWLAWYQQKPGNAPRLLISGATSLETGVPSRFSGSGSGKDYTLSITSLQTEDVATYYCQQYWSPPYTFGGGTKLEIK
# notes: also called mAb73c
# B18: HumAb719-11 (antibody, human IgG1, kappa, L234A L235A, V domains shown)
# VH: EVQLLESGGGLVQPGGSLRLSCAASGFSFSSHLMSWVRQAPGKGLEWVAAISGGGADTYYPDSVKGRFTISRDNSKNTLYLQMNSLRAEDTAVYYCTRQILAFDSWGQGTTVTVSS
# VL: DIQMNQSPSSLSASVGDRVTITCHASQNIYVWLNWYQQKPGKAPKLLIYKASNLHTGVPSRFSGSGSGTDFTFTISSLQPEDIATYYCQQGQSYPWTFGGGTKVEIKR
# notes: humanized mAb719
# B19: HumAb719-12 (antibody, human IgG1, kappa, L234A L235A, V domains shown)
# VH: B18 VH with G44R
# VL: B18 VL
# notes: humanized mAb719
# B20: HumAb719-21 (antibody, human IgG1, kappa, L234A L235A, V domains shown)
# VH: B18 VH with G44R, D62A, S105A
# VL: B18 VL with A43I
# notes: humanized mAb719; also called HuniAb719-21
# B21: HumAb719-8 (antibody, human IgG1, kappa, L234A L235A, V domains shown)
# VH: B18 VH with S28T, A49S, T97A, R98K
# VL: B18 VL
# notes: humanized mAb719
# B22: mAb719c (antibody, V domains shown)
# VH: EVKLVESGGGLVKPGGSLKLSCTASGFSFSSHLMSWVRQTPEKRLEWVAAISGGGADTYYPDSVKGRFTISRDNAKNTLYLQMRSLRSEDTALYYCTRQILAFDSWGQGTTLTVSS
# VL: DIQMNQSPSSLSVSLGDTITITCHASQNIYVWLNWYQQKPGNIPKLLIYKASNLHTGVPSRFSGGGSGTGFTLTISSLQPEDIATYYCQQGQSYPWTFGGGTKLEIK
# Biological target: T1, human PD-1 expressed on cells (human, UniProt Q15116 25-288)
# T1 construct: whole, on cells; also called CHO-K1/huPD-1; CHO-K1-hPD-1 cells
# T1 sequence (Q15116 25-288): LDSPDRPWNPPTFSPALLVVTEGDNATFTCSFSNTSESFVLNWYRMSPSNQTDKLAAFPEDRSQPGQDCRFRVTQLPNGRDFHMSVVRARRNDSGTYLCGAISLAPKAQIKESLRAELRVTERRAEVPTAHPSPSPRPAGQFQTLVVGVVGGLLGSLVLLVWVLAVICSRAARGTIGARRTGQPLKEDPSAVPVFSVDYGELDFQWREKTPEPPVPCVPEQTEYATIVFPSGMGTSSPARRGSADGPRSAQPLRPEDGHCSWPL
# Assay: cell RBA FACS, CHO-K1-huPD1; competitor biotin-PD-L1/Fc
# Method: (§1) All 15 humanized antibodies and the chimeric antibody (mAb709c) were characterized by binding ELISA and cell-based RBA. For cell-based RBA, 2×10⁵ cells/well of CHO-K1-huPD1 cells were added to a pre-blocked 96-well round-bottomed plate and after washing, 50 μl antibodies with diluted concentration ranging from 0.064 nM to 200 nM were added to each well. Next, 50 μl of 60 μg/ml biotinylated PD-L1/Fc or biotinylated PD-L2/Fc protein were added. After gentle mixing and incubation at 4° C., the cells were washed and stained by Alexa Fluor™ 488 streptavidin solution (1:1000, ThermoFisher Scientific; Cat. No. S32354). Signals were readout by FACS and curves were fitted by GraphPad software. […] The association and dissociation rate constants, k (M⁻¹ s⁻¹) and koff(s⁻¹), respectively, were determined by making kinetic binding measurements at five different concentrations of human PD-1-His protein at a continuous flow rate of 30 μl/min. The equilibrium dissociation constant KD (M) of the reaction between antibodies and related target proteins was calculated from the kinetic rate constants using the formula KD=koff/kₒₙ. HumAb709-8 had minimal back-mutation(s) while maintaining to the greatest extent the affinity of the parental variable domains on chimeric mAb709c.
row,IC50 [nM],Binder
1,0.4,B1
2,0.44,B2
3,0.45,B3
4,1.23,B4
5,1.02,B5
6,0.51,B6
7,0.67,B7
8,0.9,B8
9,1.04,B9
10,0.55,B10
11,0.47,B11
12,0.29,B12
13,0.5,B13

# Biological target: T2, human PD-1-His protein (human, UniProt Q15116 25-167, limits assumed)
# T2 construct: also called huPD-1; not shown: His tag
# T2 sequence (Q15116 25-167 limits assumed): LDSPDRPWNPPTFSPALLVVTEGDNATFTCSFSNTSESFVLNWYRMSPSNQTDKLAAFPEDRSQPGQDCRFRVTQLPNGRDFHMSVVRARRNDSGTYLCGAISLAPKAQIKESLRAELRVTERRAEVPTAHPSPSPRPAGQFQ
# Assay: SPR Biacore
Kd [nM],koff [s⁻¹],kon [M⁻¹ s⁻¹],Binder
2.46,0.000208,84500,B14
2.37,0.000378,159000,B15
11.1,0.001,90100,B16
1.3,0.000284,218000,B17

# Biological target: T1, human PD-1 expressed on cells
# Assay: cell RBA FACS; competitor PD-L2/Fc
row,IC50 [nM],Binder
1,1.24,B14
2,0.97,B15
3,1.2,B16
4,2.2,B17

# Biological target: T1, human PD-1 expressed on cells
# Assay: cell RBA FACS, CHO-K1-huPD1; competitor biotin-PD-L2/Fc
# Method: as §1
row,IC50 [nM],Binder
1,0.84,B1
2,1,B2
3,1.35,B3
4,1.26,B4
5,1.64,B5
6,0.92,B6
7,0.97,B7
8,1.21,B8
9,1.76,B9
10,0.92,B10
11,0.99,B11
12,0.8,B12
13,0.78,B13

# Biological target: T2, human PD-1-His protein
# Assay: SPR Biacore, Ab captured, huPD-1-His analyte
# Method: as §1
Kd [nM],koff [s⁻¹],kon [M⁻¹ s⁻¹],Binder
2.36,0.000336,141000,B1
0.368,4.69e-05,127000,B2
11,0.00215,195000,B5
0.684,5.5e-05,80300,B11
2.04,0.000297,146000,B12

# Biological target: T1, human PD-1 expressed on cells
# Assay: cell RBA FACS; competitor PD-L1/Fc
row,IC50 [nM],Binder
1,0.77,B14
2,0.51,B15
3,0.5,B16
4,0.91,B17

# Biological target: T3, human PD-1 ECD/Fc fusion protein (human)
# T3 construct: also called huPD-1/Fc; HuPD-1 ECD/Fc
# T3 sequence (chain, as listed by the source limits assumed): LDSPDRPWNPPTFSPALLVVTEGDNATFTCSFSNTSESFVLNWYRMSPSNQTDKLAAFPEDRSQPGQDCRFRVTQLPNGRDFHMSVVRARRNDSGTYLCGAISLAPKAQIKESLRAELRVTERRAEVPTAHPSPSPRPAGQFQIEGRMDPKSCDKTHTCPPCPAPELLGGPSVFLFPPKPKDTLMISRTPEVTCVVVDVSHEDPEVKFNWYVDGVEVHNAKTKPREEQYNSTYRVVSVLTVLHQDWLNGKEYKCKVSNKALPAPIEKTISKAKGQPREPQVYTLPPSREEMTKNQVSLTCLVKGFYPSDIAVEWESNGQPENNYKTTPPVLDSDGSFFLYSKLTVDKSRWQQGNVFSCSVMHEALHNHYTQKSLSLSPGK
# Assay: BLI Octet, immobilized huPD-1-Fc, Ab analyte
# From the text: All 21 humanized antibodies and the chimeric antibody (mAb719c) were characterized by binding ELISA and affinity determination using Octet® RED96 biolayer interferometry system (Pall FortéBio LLG), using a biosensor having immobilized human PD-Fc as the antibody target. Rate constants were derived by making kinetic binding measurements at five different concentrations of antibody.
Kd [nM],koff [s⁻¹],kon [M⁻¹ s⁻¹],Binder
3.82,0.000227,59400,B18
0.844,5.81e-05,68800,B19
0.601,6.26e-05,104000,B20
0.46,4.9e-05,107000,B21
< 0.103,< 1e-05,97400,B22
